These results are taken from patent US20100041596A1 (published 2010).

The target of one experiment is T1, TNFα, biotinylated form (human, UniProt P01375 77-233, biotinylated).
T1 construct: also called biotinylated human TNF-α; Bt-TNF-α
Briefly: biotinylated TNFα staining normalized to HA staining.

A further experiment concerns the target T2, p60ΔCD-GFP-HA (UniProt P42212 1-238 = GFP, limits assumed).
T2 construct: GFP introduced in-frame into p60ΔCD-HA; p60 limits deduced as for p60ΔCD-HA; also called chimeric p60 receptor with the cytoplasmic domain replaced by GFP
Kind of experiment: co-immunoprecipitation in 293T transient transfections. As to the method:
The PCR product was digested with BamHI and EcoRI and cloned into pcDNA3. The PCR fragments containing the receptor fragments were then introduced into this plasmid using the EcoRI and XhoI sites. For the GFP/CFP/YFP chimeras, the fragments were amplified by PCR and introduced in-frame into the XhoI and XbaI sites of p60ΔCD-HA. 293T cells were transfected with Fugene 6 (Boehringer Mannheim) as per manufacturer's protocol. Cells were lysed in 150 mM NaCl, 20 mM Tris.Cl [pH 7.5], 1 mM EDTA, 30 mM NaF, 2 mM β-glycerophosphate, 1 mM sodium orthovanadate, 5 mM iodoacetamide, 2 mM dithiothreitol (DTT), 1% TRITON X-100 and protease inhibitors (Boehringer Mannheim). After pre-clearing with protein G agarose beads (Boehringer Mannheim) and normal mouse IgG, proteins were immunoprecipitated from the lysates with […] anti-GFP and protein G agarose beads. Immune complexes were washed twice with lysis buffer containing 0.5 M NaCl and then three times with regular lysis buffer. Immune-complexes were resolved on Tris/Glycine gels (Novex).

T1 sequence (P01375 77-233 limits assumed): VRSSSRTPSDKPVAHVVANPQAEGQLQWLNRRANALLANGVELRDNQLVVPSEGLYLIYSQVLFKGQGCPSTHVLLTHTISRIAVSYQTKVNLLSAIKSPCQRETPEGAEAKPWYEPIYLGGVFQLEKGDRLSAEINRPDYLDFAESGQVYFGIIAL

B1: p60ΔCD-HA K32A (receptor, not shown: small tags and cut ends)
chain: LVPHLGDREKRDSVCPQGKYIHPQNNSICCTACHKGTYLYNDCPGPGQDTDCRECESGSFTASENHLRHCLSCSKCRKEMGQVEISSCTVDRDTVCGCRKNQYRHYWSENLFQCFNCSLCLNGTVHLSCQEKQNTVCTCHAGFFLRENECVSCSNCKKSLECTKLCLPQIENVKGTEDSGTTVLLPLVIFFGLCLLSLLFIGLMYRYQRWK
notes: Mutant of p60ΔCD-HA; numbers count on mature p60
For the molecule B1, the binding result is “no binding” in the experiment with TNFα, biotinylated form and “no binding” with p60ΔCD-GFP-HA.
